Consider 5 sequences from the supplement of paper PMC5998384.

Series [1] concerns HeLa Kyoto. In words: melting temperature (median over replicates), in situ; higher = more thermally stable.
Series [2] deals with HeLa Kyoto. In words: thermal stability score vs G1/S (z-score of summed log2 fold changes over temperatures); higher = more thermally stable than in G1/S.
Series [3] deals with HeLa Kyoto. In words: solubility change mitosis vs G1/S (difference of NP-40 vs SDS log2 ratios) (log2 ratio difference); higher = more soluble in mitosis.
The test system of series [4] is HeLa Kyoto. In words: solubility in G1/S (NP-40 vs SDS abundance) (log2 ratio); higher = more soluble. As to conditions: cell cycle stage: G1/S.
Where [5] appears, read: cell cycle stage: early G1 (4.5 h after nocodazole release).
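Wherever melting temperature (median over replicates), in situ is given: HeLa Kyoto cells synchronized by double thymidine or nocodazole block, proteins quantified by TMT10plex mass spectrometry, three independent biological replicates.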
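Wherever solubility change mitosis vs G1/S (difference of NP-40 vs SDS log2 ratios) is given: synchronized HeLa Kyoto cells (double thymidine block for G1/S, nocodazole release for mitosis), protein amounts in NP-40 versus SDS lysates quantified by mass spectrometry, three biological replicates.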
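Wherever solubility in G1/S (NP-40 vs SDS abundance) is given: HeLa Kyoto cells arrested at G1/S by double thymidine block, proteins quantified by TMT10plex mass spectrometry in mild NP-40 versus SDS extracts, three biological replicates.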
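Wherever thermal stability score vs G1/S (z-score of summed log2 fold changes over temperatures) is given: synchronized HeLa Kyoto cells, proteins quantified by TMT10plex mass spectrometry, three biological replicates, mitosis taken 0.5 h after nocodazole release, G1/S directly after double thymidine block.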

Turning to “MAEGERQPPPDSSEEAPPATQNFIIPKKEIHTVPDMGKWKRSQAYADYIGFILTLNEGVKGKKLTFEYRVSEMWNEVHEEKEQAAKQSVSCDECIPLPRAGHCAPSEAIEKLVALLNTLDRWIDETPPVDQPSRFGNKAYRTWYAKLDEEAENLVATVVPTHLAAAVPEVAVYLKESVGNSTRIDYGTGHEAAFAAFLCCLCKIGVLRVDDQIAIVFKVFNRYLEVMRKLQKTYRMEPAGSQGVWGLDDFQFLPFIWGSSQLIDHPYLEPRHFVDEKAVNENHKDYMFLECILFITEMKTGPFAEHSNQLWNISAVPSWSKVNQGLIRMYKAECLEKFPVIQHFKFGSLLPIHPVTSG [PPP2R4]”, the melting temperature in series [1] (cell cycle stage: G1/S) and in series [1] (cell cycle stage: mitosis) was 53.8 °C in each case. The thermal stability score in series [2] (setting [5]) stood at 2.14; in series [2] (cell cycle stage: mitosis) it was 2.26. In addition, the “solubility change mitosis (log2)” value in series [3] was -0.119. In addition, the “solubility in G1/S (log2)” value in series [4] is 0.247.
As to “MAEGGGCRERPDAETQKSELGPLMRTTLQRGAQWYLIDSRWFKQWKKYVGFDSWDMYNVGEHNLFPGPIDNSGLFSDPESQTLKEHLIDELDYVLVPTEAWNKLLNWYGCVEGQQPIVRKVVEHGLFVKHCKVEVYLLELKLCENSDPTNVLSCHFSKADTIATIEKEMRKLFNIPAERETRLWNKYMSNTYEQLSKLDNTVQDAGLYQGQVLVIEPQNEDGTWPRQTLQSKSSTAPSRNFTTSPKSSASPYSSVSASLIANGDSTSTCGMHSSGVSRGGSGFSASYNCQEPPSSHIQPGLCGLGNLGNTCFMNSALQCLSNTAPLTDYFLKDEYEAEINRDNPLGMKGEIAEAYAELIKQMWSGRDAHVAPRMFKTQVGRFAPQFSGYQQQDSQELLAFLLDGLHEDLNRVKKKPYLELKDANGRPDAVVAKEAWENHRLRNDSVIVDTFHGLFKSTLVCPECAKVSVTFDPFCYLTLPLPLKKDRVMEVFLVPADPHCRPTQYRVTVPLMGAVSDLCEALSRLSGIAAENMVVADVYNHRFHKIFQMDEGLNHIMPRDDIFVYEVCSTSVDGSECVTLPVYFRERKSRPSSTSSASALYGQPLLLSVPKHKLTLESLYQAVCDRISRYVKQPLPDEFGSSPLEPGACNGSRNSCEGEDEEEMEHQEEGKEQLSETEGSGEDEPGNDPSETTQKKIKGQPCPKRLFTFSLVNSYGTADINSLAADGKLLKLNSRSTLAMDWDSETRRLYYDEQESEAYEKHVSMLQPQKKKKTTVALRDCIELFTTMETLGEHDPWYCPNCKKHQQATKKFDLWSLPKILVVHLKRFSYNRYWRDKLDTVVEFPIRGLNMSEFVCNLSARPYVYDLIAVSNHYGAMGVGHYTAYAKNKLNGKWYYFDDSNVSLASEDQIVTKAAYVLFYQRRDDEFYKTPSLSSSGSSDGGTRPSSSQQGFGDDEACSMDTN [USP4]”, the melting temperature in series [1] (cell cycle stage: G1/S) came out at 48.4 °C; in series [1] (cell cycle stage: mitosis) it was 48.5 °C. The thermal stability score was found to be 0.154 in series [2] (setting [5]) and 0.64 in series [2] (cell cycle stage: mitosis). Moreover, the “solubility change mitosis (log2)” value in series [3] is -0.278. Further, the “solubility in G1/S (log2)” value in series [4] was found to be 0.0816.
Turning to “MAEGSAVSDPQHAARLLRALSSFREESRFCDAHLVLDGEEIPVQKNILAAASPYIRTKLNYNPPKDDGSTYKIELEGISVMVMREILDYIFSGQIRLNEDTIQDVVQAADLLLLTDLKTLCCEFLEGCIAAENCIGIRDFALHYCLHHVHYLATEYLETHFRDVSSTEEFLELSPQKLKEVISLEKLNVGNERYVFEAVIRWIAHDTEIRKVHMKDVMSALWVSGLDSSYLREQMLNEPLVREIVKECSNIPLSQPQQGEAMLANFKPRGYSECIVTVGGEERVSRKPTAAMRCMCPLYDPNRQLWIELAPLSMPRINHGVLSAEGFLFVFGGQDENKQTLSSGEKYDPDANTWTALPPMNEARHNFGIVEIDGMLYILGGEDGEKELISMECYDIYSKTWTKQPDLTMVRKIGCYAAMKKKIYAMGGGSYGKLFESVECYDPRTQQWTAICPLKERRFGAVACGVAMELYVFGGVRSREDAQGSEMVTCKSEFYHDEFKRWIYLNDQNLCIPASSSFVYGAVPIGASIYVIGDLDTGTNYDYVREFKRSTGTWHHTKPLLPSDLRRTGCAALRIANCKLFRLQLQQGLFRIRVHSP [GAN]”, the melting temperature in series [1] (cell cycle stage: G1/S) worked out at 51.6 °C; in series [1] (cell cycle stage: mitosis) it was 48.7 °C. Moreover, the thermal stability score in series [2] (setting [5]) was -0.83; in series [2] (cell cycle stage: mitosis), -2.48. Also, the “solubility change mitosis (log2)” value in series [3] is -0.271. Also, in series [4], the “solubility in G1/S (log2)” value is -0.0081.
In the case of “MAEGSGEVVAVSATGAANGLNNGAGGTSATTCNPLSRKLHKILETRLDNDKEMLEALKALSTFFVENSLRTRRNLRGDIERKSLAINEEFVSIFKEVKEELESISEDVQAMSNCCQDMTSRLQAAKEQTQDLIVKTTKLQSESQKLEIRAQVADAFLSKFQLTSDEMSLLRGTREGPITEDFFKALGRVKQIHNDVKVLLRTNQQTAGLEIMEQMALLQETAYERLYRWAQSECRTLTQESCDVSPVLTQAMEALQDRPVLYKYTLDEFGTARRSTVVRGFIDALTRGGPGGTPRPIEMHSHDPLRYVGDMLAWLHQATASEKEHLEALLKHVTTQGVEENIQEVVGHITEGVCRPLKVRIEQVIVAEPGAVLLYKISNLLKFYHHTISGIVGNSATALLTTIEEMHLLSKKIFFNSLSLHASKLMDKVELPPPDLGPSSALNQTLMLLREVLASHDSSVVPLDARQADFVQVLSCVLDPLLQMCTVSASNLGTADMATFMVNSLYMMKTTLALFEFTDRRLEMLQFQIEAHLDTLINEQASYVLTRVGLSYIYNTVQQHKPEQGSLANMPNLDSVTLKAAMVQFDRYLSAPDNLLIPQLNFLLSATVKEQIVKQSTELVCRAYGEVYAAVMNPINEYKDPENILHRSPQQVQTLLS [COG6]”, the melting temperature stood at 48.6 °C in series [1] (cell cycle stage: G1/S) and 49.3 °C in series [1] (cell cycle stage: mitosis). Further, the thermal stability score in series [2] (setting [5]) is 0.0299; in series [2] (cell cycle stage: mitosis), 0.655. In series [3], the “solubility change mitosis (log2)” value was -0.0596. For the same sequence, the “solubility in G1/S (log2)” value in series [4] is 0.289.
As for “MAEKFDCHYCRDPLQGKKYVQKDGHHCCLKCFDKFCANTCVECRKPIGADSKEVHYKNRFWHDTCFRCAKCLHPLANETFVAKDNKILCNKCTTREDSPKCKGCFKAIVAGDQNVEYKGTVWHKDCFTCSNCKQVIGTGSFFPKGEDFYCVTCHETKFAKHCVKCNKAITSGGITYQDQPWHADCFVCVTCSKKLAGQRFTAVEDQYYCVDCYKNFVAKKCAGCKNPITGKRTVSRVSHPVSKARKPPVCHGKRLPLTLFPSANLRGRHPGGERTCPSWVVVLYRKNRSLAAPRGPGLVKAPVWWPMKDNPGTTTASTAKNAP [FHL1]”, the melting temperature in series [1] (cell cycle stage: G1/S) was 56.4 °C; in series [1] (cell cycle stage: mitosis), 58.5 °C. For the same sequence, the figures for the thermal stability score in series [2] (setting [5]) and in series [2] (cell cycle stage: mitosis) were 0.0455 and -3.17, respectively. In series [3], the “solubility change mitosis (log2)” value is -0.0498. Besides, in series [4], the “solubility in G1/S (log2)” value is -0.37.
